Results from patent US20120282282A1, “Methods for Decreasing Ocular Toxicity of Antibody Drug Conjugates” (priority 2011, published 2012).
Where two headings read alike, the source gives them in different places.

Assays:
[1] = SAR3419 Phase I clinical trials, pharmacokinetics and toxicity; assay type: in vivo, human
Excerpt: SAR3419 is a DM4-containing antibody drug conjugate that comprises the humanized antibody Hu-B4 (humanized mouse IgG1 MAb targeting CD19) and the SPDB linker. Phase I clinical trials were initiated in patients having relapsed or refractory CD19+B cell Non-Hodgkins Lymphoma.

[2] = assay type: in vivo; details: rabbit, 3 weekly doses
Method: Maytansinoid conjugates with different linker-maytansinoid formats were evaluated for induction of corneal ocular toxicity in a preclinical rabbit model. Hallmarks of corneal epithelial damage such as migration of pigmented basal epithelial cells distal from the limbus, corneal pannus, and epithelial erosion were assessed following 3 weekly doses.

[3] = IMGN242 pharmacokinetics and toxicity in human clinical trials; assay type: in vivo
[4] = IMGN242 preclinical pharmacokinetic studies, mice; assay type: in vivo
Method: (§1) IMGN242 is an antibody drug conjugate for the treatment of CanAg-expressing tumors. The compound is made by conjugating the potent cytotoxic maytansinoid, DM4, to the monoclonal antibody, huC242. Forty-five patients have been treated with IMGN242 at 8 different dose levels (18 to 297 mg/m2) in two clinical trials. […] The determined half-life in patients was similar to that predicted for IMGN242 from preclinical pharmacokinetic studies (t1/2 about 5 days in mice and 4 days in cynomolgus monkeys).

[5] = IMGN242 preclinical pharmacokinetic studies, cynomolgus monkeys; assay type: in vivo
Method: as §1

[6] = patients, 160 mg/m^2 and 208 mg/m^2
[7] = patients with low circulating CanAg (<1000 U/mL)

Molecule: SAR3419
- elimination [1, 6]: eliminated rapidly
- exposure versus dose [1, 6]: increased with dose
- ocular toxicity ([1]; some patients, 160 mg/m^2 or 208 mg/m^2): displayed ocular toxicity

Molecule: SMCC-DM1
- corneal ocular toxicity ([2]; dose 8 mg/kg): −
- corneal ocular toxicity ([2]; dose 10 mg/kg): −
- corneal ocular toxicity ([2]; dose 12 mg/kg): −
- corneal ocular toxicity ([2]; dose 16 mg/kg): −

B1: IMGN242 (conjugate, chains of the INN, looked up)
VH: QVQLVQSGAEVKKPGETVKISCKASDYTFTYYGMNWVKQAPGQGLKWMGWIDTTTGEPTYAQKFQGRIAFSLETSASTAYLQIKSLKSEDTATYFCARRGPYNWYFDVWGQGTTVTVSS
VL: DIVMTQSPLSVPVTPGEPVSISCRSSKSLLHSNGNTYLYWFLQRPGQSPQLLIYRMSNLVSGVPDRFSGSGSGTAFTLRISRVEAEDVGVYYCLQHLEYPFTFGPGTKLELK
modifications: maytansinoid DM1 payload (mertansine)
- Cmax versus dose ([3]; patients): increased proportionally with increasing dose
- effect of circulating CanAg levels on Cmax ([3]; patients): not significantly affected
- increase in clearance ([3]; patients with high CanAg (>1000 U/mL) compared to low (<1000 U/mL)): 3 to 5 fold
- duration of initial rapid distribution phase [3, 7]: about 48 hours
- pharmacokinetic profile in plasma [3, 7]: two-phase pharmacokinetic profile
- elimination phase half-life ([3]; patients with low circulating CanAg, preliminary analysis): about 5 days
- incidence of possible study drug-related ocular toxicities ([3]; patients with low plasma CanAg (<1000 U/ml), dose 168 mg/m2): notable incidence
- dose limiting toxicities (DLTs) ([3]; patients, 18 to 297 mg/m2): decreased visual acuity, corneal deposits and keratitis
- t1/2 [4]: about 5 days
- t1/2 [5]: ~96 h
